From patent US11505586B2, “Interaction of Draxin and γ-netrins” (Max-Planck-Gesellschaft zur Foerderung der Wissenschaften …, priority 2014, dated 2022)

What was measured:
Netrin receptors = test: AVEXIS direct binding to Netrin receptors; set-up: species or system zebrafish; conditions: AVEXIS platform
Excerpt: By using an AVEXIS-based competition assay (FIG. 6 A) we tested whether the binding of DraxinA to Netrin1a has an influence on Netrins ability to bind to Netrin receptors. First we confirmed that we reliably detected the binding of Netrin1a to Netrin receptors of the DCC/Neo1 and Unc5 families with the AVEXIS method. We also tested whether Draxin is able to bind to the corresponding Netrin receptors. […] This has also been confirmed by a recent publication (Haddick et al. 2014). In the competition assay the extracellular domains (ECDs) of Netrin receptors have been used as prey proteins together with purified full length DraxinA and probed for binding against Netrin1a bait proteins. […] The inhibition is specific for DraxinA.

recombinant human DCC = target: T1, recombinant human DCC (Homo sapiens, UniProt P43146); test: Surface Plasmon Resonance; format: binding; conditions: Biacore 3000, Draxin 0-18.8 nM
T1 construct: made in house; host or cells: HEK293-6E
Description: (§1) Surface Plasmon Resonance (SPR) experiments were performed on a Biacore 3000 (GE Healthcare) at 25° C. using a SA sensor chip in 0.01 M HEPES, pH 7.4, 0.15 M NaCl, 0.005% Surfactant P20 (HBS-P) running buffer at a flow rate of 30 μl/min. The instrument was used according to manufacturer's instructions.
(§2) Recombinant human Draxin was purchased from R&D systems. Biotinylated recombinant human UNC5B, Netrin1 and DCC were produced recombinantly using the described mammalian expression system (HEK293-6E). Biotinylated proteins were immobilised on the SA coated sensor chip and Draxin was injected sequentially in increasing concentrations (0 nM, 1.2 nM. 2.3 nM, 4.7 nM, 9.4 nM, 18.8 nM) for 3 min. […] No binding of Draxin to UNC5B and DCC was detected (FIG. 14).

recombinant human UNC5B = target: T2, recombinant human UNC5B (Homo sapiens, UniProt Q8IZJ1); test: Surface Plasmon Resonance; format: binding; conditions: Biacore 3000, Draxin 0-18.8 nM
T2 construct: made in house; host or cells: HEK293-6E
Description: as §1, §2

T1 sequence (P43146 26-1097 limits assumed): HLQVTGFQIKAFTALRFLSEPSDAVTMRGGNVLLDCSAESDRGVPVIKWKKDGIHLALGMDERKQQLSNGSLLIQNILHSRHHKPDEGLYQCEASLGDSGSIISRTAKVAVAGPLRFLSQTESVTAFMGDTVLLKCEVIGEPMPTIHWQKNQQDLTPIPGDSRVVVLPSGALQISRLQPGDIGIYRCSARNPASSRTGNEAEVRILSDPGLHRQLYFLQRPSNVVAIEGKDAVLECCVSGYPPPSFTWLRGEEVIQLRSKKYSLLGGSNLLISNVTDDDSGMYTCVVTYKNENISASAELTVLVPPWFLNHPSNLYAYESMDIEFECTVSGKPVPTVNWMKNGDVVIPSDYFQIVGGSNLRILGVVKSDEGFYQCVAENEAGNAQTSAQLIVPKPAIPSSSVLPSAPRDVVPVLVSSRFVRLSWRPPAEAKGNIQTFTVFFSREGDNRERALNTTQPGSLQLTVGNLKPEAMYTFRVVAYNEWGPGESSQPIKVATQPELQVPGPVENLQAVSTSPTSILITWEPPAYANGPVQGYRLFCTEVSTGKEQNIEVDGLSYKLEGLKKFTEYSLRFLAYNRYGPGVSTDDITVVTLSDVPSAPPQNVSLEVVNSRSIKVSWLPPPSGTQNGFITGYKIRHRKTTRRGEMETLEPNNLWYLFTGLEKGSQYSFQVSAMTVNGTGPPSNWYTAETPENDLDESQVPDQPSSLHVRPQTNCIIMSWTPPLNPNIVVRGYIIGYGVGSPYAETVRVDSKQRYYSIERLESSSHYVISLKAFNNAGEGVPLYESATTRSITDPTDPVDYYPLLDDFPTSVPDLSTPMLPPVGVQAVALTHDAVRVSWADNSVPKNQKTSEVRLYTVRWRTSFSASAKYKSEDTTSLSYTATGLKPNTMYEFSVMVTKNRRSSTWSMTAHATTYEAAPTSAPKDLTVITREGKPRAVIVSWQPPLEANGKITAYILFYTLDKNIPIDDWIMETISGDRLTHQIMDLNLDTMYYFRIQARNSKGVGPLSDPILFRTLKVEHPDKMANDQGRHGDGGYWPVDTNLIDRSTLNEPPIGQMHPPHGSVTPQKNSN

- direct binding to Netrin receptors (Netrin receptors): not able to detect direct binding
- binding to immobilised DCC (recombinant human DCC): No binding
- binding to immobilised UNC5B (recombinant human UNC5B): No binding
B1: Draxin: Recombinant human Draxin purchased from R&D systems (protein, listed as Homo sapiens)
chain: MAGPAIHTAPMLFLVLLLPLELSLAGALAPGTPARNLPENHIDLPGPALWTPQASHHRRRGPGKKEWGPGLPSQAQDGAVVTATRQASRLPEAEGLLPEQSPAGLLQDKDLLLGLALPYPEKENRPPGWERTRKRSREHKRRRDRLRLHQGRALVRGPSSLMKKAELSEAQVLDAAMEESSTSLAPTMFFLTTFEAAPATEESLILPVTSLRPQQAQPRSDGEVMPTLDMALFDWTDYEDLKPDGWPSAKKKEKHRGKLSSDGNETSPAEGEPCDHHQDCLPGTCCDLREHLCTPHNRGLNNKCFDDCMCVEGLRCYAKFHRNRRVTRRKGRCVEPETANGDQGSFINV
